Legend:
Grb2 SH2 = Grb2 SH2 (UniProt P62993); assay: SH2 binding enrichment of the phosphorylated peptide, bacterial display (enrichment ratio); higher = better substrate or ligand; peptides without Tyr show the background
c-Src SH2 = assay: as above
SHP2-C SH2 = assay: as above
FGFR3 = FGFR3 (UniProt P22607); assay: phosphorylation enrichment, bacterial display (enrichment ratio); higher = better substrate or ligand; peptides without Tyr show the background
Fyn = Fyn (UniProt P06241); assay: as above
Jak2 = Jak2 (UniProt O60674); assay: as above
AncSZ = assay: as above
EPHB1 = EPHB1 (UniProt P54762); assay: as above
c-Src = assay: as above
Fes = Fes (UniProt P07332); assay: as above
FGFR1 = FGFR1 (UniProt P11362); assay: as above
MERTK = MERTK (UniProt Q12866); assay: as above
Hck = Hck (UniProt P08631); assay: as above
Fer (mouse) = assay: as above
c-Abl (mouse) = assay: as above
EPHB2 = EPHB2 (UniProt P29323); assay: as above
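For SH2 binding enrichment of the phosphorylated peptide, bacterial display in this document: peptide library displayed on the E. coli surface as eCPX fusions, selected cells deep-sequenced, score is each peptide's frequency after selection divided by its frequency in the input.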
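For phosphorylation enrichment, bacterial display in this document: 11-residue human phosphosite peptides and single-mutation variants displayed on the E. coli surface, counted by deep sequencing, each peptide's frequency after selection divided by its frequency in the unselected input library; frequency after pTyr selection over input frequency; kinase dosed for 20-30% of maximal phosphorylation in three min.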

Chain of FGFR1 (P11362 whole entry, looked up): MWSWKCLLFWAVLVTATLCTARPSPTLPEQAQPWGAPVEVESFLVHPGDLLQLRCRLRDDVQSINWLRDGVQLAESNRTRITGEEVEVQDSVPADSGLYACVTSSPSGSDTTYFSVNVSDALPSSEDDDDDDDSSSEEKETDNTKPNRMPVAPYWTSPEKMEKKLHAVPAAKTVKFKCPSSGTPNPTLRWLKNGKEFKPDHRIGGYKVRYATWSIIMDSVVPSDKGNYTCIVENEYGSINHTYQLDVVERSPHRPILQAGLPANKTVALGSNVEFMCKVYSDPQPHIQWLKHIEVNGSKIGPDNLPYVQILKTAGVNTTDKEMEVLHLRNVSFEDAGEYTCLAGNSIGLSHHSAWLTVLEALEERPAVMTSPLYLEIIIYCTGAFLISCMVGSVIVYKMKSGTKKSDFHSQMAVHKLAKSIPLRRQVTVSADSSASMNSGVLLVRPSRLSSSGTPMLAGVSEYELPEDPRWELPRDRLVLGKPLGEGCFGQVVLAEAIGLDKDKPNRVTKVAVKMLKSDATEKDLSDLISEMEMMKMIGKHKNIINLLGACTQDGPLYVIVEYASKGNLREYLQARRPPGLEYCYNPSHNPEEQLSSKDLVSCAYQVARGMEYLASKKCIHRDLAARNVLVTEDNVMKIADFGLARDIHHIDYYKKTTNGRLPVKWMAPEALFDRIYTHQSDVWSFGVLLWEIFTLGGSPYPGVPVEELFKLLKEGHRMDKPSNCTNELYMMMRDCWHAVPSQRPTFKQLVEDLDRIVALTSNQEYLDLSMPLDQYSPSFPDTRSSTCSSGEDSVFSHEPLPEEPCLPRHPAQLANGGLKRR
Chain of FGFR3 (P22607 whole entry, looked up): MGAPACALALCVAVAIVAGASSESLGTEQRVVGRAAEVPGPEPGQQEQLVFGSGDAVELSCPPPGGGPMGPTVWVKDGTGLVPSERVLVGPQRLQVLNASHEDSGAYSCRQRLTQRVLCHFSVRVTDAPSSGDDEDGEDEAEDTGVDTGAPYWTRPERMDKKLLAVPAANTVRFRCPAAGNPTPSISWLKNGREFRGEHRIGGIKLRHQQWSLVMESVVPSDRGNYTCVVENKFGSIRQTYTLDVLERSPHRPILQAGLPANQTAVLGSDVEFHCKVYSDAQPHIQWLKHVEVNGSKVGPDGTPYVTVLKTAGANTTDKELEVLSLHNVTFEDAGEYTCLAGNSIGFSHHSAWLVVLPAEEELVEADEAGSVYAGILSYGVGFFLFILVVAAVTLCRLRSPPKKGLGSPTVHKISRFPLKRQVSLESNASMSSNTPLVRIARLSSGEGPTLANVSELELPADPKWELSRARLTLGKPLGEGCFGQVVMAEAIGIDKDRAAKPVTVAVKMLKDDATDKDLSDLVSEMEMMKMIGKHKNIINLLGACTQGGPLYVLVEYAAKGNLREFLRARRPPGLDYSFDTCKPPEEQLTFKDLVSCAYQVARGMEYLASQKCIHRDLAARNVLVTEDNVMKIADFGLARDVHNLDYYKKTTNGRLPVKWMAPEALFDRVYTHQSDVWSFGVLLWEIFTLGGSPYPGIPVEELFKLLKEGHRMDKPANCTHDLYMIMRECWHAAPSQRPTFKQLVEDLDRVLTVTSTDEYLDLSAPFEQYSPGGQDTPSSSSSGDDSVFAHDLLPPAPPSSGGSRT
Chain of EPHB2 (P29323 whole entry, looked up, the tested form may be a part): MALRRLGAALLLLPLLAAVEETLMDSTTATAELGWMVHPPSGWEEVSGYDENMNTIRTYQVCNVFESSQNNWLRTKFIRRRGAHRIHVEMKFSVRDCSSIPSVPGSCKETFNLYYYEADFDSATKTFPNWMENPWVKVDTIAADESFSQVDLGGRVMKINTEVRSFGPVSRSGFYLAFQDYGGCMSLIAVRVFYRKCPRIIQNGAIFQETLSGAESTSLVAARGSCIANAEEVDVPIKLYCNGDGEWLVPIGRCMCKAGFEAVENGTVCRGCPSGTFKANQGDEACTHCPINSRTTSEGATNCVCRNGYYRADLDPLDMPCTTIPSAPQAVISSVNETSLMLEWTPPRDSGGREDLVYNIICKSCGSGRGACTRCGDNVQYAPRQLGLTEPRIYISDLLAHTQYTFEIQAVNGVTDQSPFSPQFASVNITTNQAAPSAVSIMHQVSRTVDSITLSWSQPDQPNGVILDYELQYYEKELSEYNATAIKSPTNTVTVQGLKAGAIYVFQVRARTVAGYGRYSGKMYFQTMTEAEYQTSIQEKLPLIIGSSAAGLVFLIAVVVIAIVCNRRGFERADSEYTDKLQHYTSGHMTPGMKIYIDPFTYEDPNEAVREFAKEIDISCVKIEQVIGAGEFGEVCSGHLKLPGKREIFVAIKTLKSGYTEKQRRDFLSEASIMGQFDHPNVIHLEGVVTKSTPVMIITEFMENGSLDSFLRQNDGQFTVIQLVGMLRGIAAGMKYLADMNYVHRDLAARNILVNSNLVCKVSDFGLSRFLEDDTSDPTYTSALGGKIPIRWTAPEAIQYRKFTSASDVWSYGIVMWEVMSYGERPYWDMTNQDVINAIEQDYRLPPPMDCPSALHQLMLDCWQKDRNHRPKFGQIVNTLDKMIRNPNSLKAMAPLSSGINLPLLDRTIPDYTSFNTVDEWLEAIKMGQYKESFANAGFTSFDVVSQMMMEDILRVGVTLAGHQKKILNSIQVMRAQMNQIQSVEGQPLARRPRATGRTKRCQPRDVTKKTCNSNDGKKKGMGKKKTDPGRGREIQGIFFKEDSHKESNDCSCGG
Chain of Fyn (P06241 whole entry, looked up): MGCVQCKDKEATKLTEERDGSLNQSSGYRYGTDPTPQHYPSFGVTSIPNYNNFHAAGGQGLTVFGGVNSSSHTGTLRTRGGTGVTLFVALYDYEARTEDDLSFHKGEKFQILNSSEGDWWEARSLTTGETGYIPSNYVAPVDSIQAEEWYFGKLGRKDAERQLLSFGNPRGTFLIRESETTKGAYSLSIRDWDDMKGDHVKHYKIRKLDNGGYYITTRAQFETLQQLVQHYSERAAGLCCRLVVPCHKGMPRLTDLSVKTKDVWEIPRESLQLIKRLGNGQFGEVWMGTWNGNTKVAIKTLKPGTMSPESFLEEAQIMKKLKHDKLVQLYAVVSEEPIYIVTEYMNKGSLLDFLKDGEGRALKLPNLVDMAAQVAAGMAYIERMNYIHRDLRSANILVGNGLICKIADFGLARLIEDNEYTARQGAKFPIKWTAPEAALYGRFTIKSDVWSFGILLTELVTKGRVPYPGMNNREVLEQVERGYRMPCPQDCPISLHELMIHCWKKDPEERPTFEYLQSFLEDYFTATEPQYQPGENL
Chain of Grb2 SH2 (P62993 whole entry, looked up): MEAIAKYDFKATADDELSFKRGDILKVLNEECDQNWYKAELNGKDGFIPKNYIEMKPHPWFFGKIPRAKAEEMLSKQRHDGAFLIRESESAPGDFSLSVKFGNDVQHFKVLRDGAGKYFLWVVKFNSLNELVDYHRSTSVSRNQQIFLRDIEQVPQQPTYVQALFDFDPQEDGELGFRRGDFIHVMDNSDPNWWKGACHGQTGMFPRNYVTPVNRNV
Chain of Hck (P08631 whole entry, looked up): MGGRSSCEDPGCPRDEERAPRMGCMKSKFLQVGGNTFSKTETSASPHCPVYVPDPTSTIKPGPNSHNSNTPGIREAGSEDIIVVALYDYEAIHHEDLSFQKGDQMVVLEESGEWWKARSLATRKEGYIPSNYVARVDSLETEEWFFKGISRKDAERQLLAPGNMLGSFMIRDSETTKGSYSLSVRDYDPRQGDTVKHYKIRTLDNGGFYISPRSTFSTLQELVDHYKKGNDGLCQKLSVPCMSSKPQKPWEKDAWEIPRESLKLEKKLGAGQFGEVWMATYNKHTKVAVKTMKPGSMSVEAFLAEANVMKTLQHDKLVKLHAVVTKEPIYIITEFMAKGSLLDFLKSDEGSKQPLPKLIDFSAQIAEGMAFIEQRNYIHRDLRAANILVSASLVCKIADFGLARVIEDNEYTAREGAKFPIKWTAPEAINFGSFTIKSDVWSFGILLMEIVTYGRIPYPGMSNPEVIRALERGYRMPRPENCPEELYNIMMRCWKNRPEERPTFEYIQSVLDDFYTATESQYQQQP
Chain of EPHB1 (P54762 whole entry, looked up): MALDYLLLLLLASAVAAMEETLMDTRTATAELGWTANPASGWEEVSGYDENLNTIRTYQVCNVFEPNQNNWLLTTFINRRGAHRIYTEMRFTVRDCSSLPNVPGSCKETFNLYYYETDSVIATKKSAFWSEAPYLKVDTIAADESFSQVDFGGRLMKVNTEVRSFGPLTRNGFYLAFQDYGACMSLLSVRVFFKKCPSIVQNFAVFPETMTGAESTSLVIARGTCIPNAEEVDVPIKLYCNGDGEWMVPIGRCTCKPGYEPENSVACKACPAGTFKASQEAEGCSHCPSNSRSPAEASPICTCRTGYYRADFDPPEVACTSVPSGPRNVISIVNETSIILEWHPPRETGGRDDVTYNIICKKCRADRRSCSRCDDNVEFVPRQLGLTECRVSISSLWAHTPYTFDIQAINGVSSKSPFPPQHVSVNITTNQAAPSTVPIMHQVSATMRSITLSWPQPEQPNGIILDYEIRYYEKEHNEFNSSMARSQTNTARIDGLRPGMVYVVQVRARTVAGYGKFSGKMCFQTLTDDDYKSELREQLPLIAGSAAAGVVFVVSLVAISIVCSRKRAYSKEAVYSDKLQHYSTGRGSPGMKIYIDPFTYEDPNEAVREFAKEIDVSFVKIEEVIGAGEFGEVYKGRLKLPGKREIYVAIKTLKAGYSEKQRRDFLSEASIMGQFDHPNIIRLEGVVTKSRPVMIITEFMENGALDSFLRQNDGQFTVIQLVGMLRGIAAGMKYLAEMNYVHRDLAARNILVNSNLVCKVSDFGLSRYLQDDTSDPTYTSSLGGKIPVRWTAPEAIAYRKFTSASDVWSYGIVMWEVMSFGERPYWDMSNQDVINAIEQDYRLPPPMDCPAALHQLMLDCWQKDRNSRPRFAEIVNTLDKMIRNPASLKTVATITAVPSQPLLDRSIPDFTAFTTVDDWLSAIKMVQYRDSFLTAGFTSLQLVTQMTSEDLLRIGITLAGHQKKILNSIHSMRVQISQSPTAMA

Sequence | SH2 binding enrichment (Grb2 SH2) | SH2 binding enrichment (c-Src SH2) | SH2 binding enrichment (SHP2-C SH2) | phosphorylation enrichment (FGFR3) | phosphorylation enrichment (Fyn) | phosphorylation enrichment (Jak2) | phosphorylation enrichment (AncSZ) | phosphorylation enrichment (EPHB1) | phosphorylation enrichment (c-Src) | phosphorylation enrichment (Fes) | phosphorylation enrichment (FGFR1) | phosphorylation enrichment (MERTK) | phosphorylation enrichment (Hck) | phosphorylation enrichment (Fer (mouse)) | phosphorylation enrichment (c-Abl (mouse)) | phosphorylation enrichment (EPHB2)
RMGNLYDIDEN [GRIN2A_Y1246_D1251N] | 0.805 | 1.2 | 0.613 | 1.22 | 4.25 | 3.11 | 1.52 | 1.16 | 3.1 | 2.16 | 0.876 | 1.03 | 1.86 | 0.864 | 2.11 | 1.44
RPAPQYPHQVP [ADAM12_Y895] | 1.06 | 0.647 | 0.687 | 1.03 | 0.715 | 1.36 | 1.3 | 0.572 | 0.819 | 1.02 | 0.608 | 0.718 | 0.582 | 0.685 | 1.01 | 0.463
RPCVVYGGADI [DDX3X_Y301] | 0.823 | 0.6 | 0.773 | 0.735 | 1.07 | 0.668 | 1 | 0.901 | 1.44 | 1.02 | 0.715 | 0.642 | 1.12 | 0.653 | 0.703 | 0.543
RPGSGYTNIMR [PKLR_Y564] | 1.32 | 2.58 | 1.43 | 0.415 | 0.919 | 0.532 | 0.64 | 0.345 | 0.707 | 0.586 | 0.439 | 0.579 | 0.784 | 0.429 | 0.723 | 0.588
RPPFTYATLIH [FOXP3_Y342_R347H] | 1.08 | 1.98 | 32.6 | 1.16 | 1.68 | 0.933 | 1.07 | 1.87 | 3.31 | 1.22 | 0.641 | 1.26 | 2.06 | 0.766 | 0.922 | 0.753
RPSELYFSKIS [SMG1_Y2253_G2258S_YF] | 0.741 | 0.758 | 0.702 | 1.1 | 1.4 | 1.06 | 0.933 | 2 | 0.691 | 1.4 | 1.22 | 0.886 | 2.85 | 0.724 | 0.834 | 1.05
RQIQSYTCEID [DES_Y331_H326R] | 0.899 | 0.674 | 0.701 | 0.726 | 0.642 | 0.833 | 1.02 | 0.522 | 0.474 | 1.08 | 0.515 | 0.489 | 0.745 | 0.485 | 0.817 | 0.514
RQQEVYLLYKQ [RARRES1_Y159_D158V] | 0.918 | 0.61 | 0.765 | 1.11 | 0.919 | 1.34 | 1.5 | 0.757 | 1.41 | 1.98 | 0.672 | 0.842 | 0.877 | 0.611 | 1.13 | 0.855
RQRTAYFSLNT [CDH1_Y68_D72N] | 0.901 | 0.871 | 14.9 | 0.745 | 0.699 | 1.34 | 0.794 | 0.661 | 0.667 | 1.1 | 0.586 | 0.566 | 0.423 | 0.552 | 0.77 | 0.68
RQSHNYLGGFA [SYK_Y47_R45H] | 0.901 | 0.433 | 1.13 | 0.558 | 0.464 | 0.523 | 0.686 | 0.427 | 0.394 | 0.65 | 0.501 | 0.414 | 0.599 | 0.387 | 0.817 | 0.537
RRAKGYPIDLY [ITGB2_Y125] | 0.707 | 0.466 | 0.627 | 0.889 | 0.787 | 1.34 | 1.07 | 0.684 | 1.28 | 1.29 | 0.718 | 1.17 | 1.18 | 0.73 | 0.868 | 0.87
RRDRDYTNLPS [CSF1R_Y923_E920D] | 1.87 | 1.45 | 0.677 | 0.696 | 0.551 | 0.639 | 1.15 | 0.604 | 0.545 | 0.893 | 0.815 | 0.442 | 0.673 | 0.64 | 1.65 | 0.682
RREWFYEVIIA [BACE1_Y260_V265A_YF] | 0.807 | 0.512 | 0.605 | 0.764 | 0.593 | 0.807 | 0.927 | 0.515 | 0.498 | 0.733 | 0.784 | 1.24 | 0.598 | 0.66 | 0.483 | 0.391
RREWFYEVIIV [BACE1_Y260_YF] | 0.927 | 0.526 | 0.741 | 0.505 | 0.649 | 0.882 | 1.53 | 0.928 | 0.515 | 4.8 | 0.605 | 2.28 | 0.561 | 1.89 | 0.766 | 0.372
RREWYYEVIIV [BACE1_Y260] | 0.873 | 0.545 | 0.75 | 2.03 | 0.571 | 0.389 | 0.874 | 0.516 | 0.635 | 0.751 | 2.85 | 0.832 | 0.718 | 0.835 | 0.771 | 0.725
RRIHSYRGHLW [VHL_Y112] | 0.799 | 0.392 | 0.641 | 1.93 | 1.91 | 4.65 | 2.9 | 2.21 | 3.66 | 2.9 | 2.16 | 2.69 | 2.59 | 1.47 | 3.28 | 1.46
RRIHSYRGHVW [VHL_Y112_L116V] | 0.578 | 0.396 | 0.25 | 0.965 | 0.861 | 1.35 | 1.56 | 0.733 | 1.04 | 0.99 | 0.899 | 1.12 | 0.736 | 0.559 | 0.848 | 0.486

Reference: the supplement of paper PMC10065799, “High-throughput profiling of sequence recognition by tyrosine kinases and SH2 domains using bacterial peptide display” (eLife, 2023)
